B1: TPR t1 (parent)
chain: GACCAAUCUGCCCUCAGAGCUCGAGAACAUCUUCGGAUGCAGAGGAGGCAGGCUUCGGUGGCGCGAUAGCGCCAACGUCCUCAACCUCCAAUGCAUCCCACCACAUGAUGAUGCCUGAAGAGCCUUGGUUUUUUG

Variants of: B1
Experiment: polymerase ribozyme fitness, log enrichment relative to wild type (log ratio); higher = more active; in vitro selection for triplet polymerase activity
Outline: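 Fitness compares each genotype's enrichment to that of the wild type on a logarithmic scale, averaging replicates with inverse-variance weights. The logarithm is base 2. Enrichment came from Illumina sequencing of input and output libraries after one triplicate round of in vitro selection, which included frozen incubation at −7 °C, of PCR-built, transcribed mutant libraries of each subunit of a heterodimeric triplet polymerase ribozyme. Only genotypes with ≥10 input reads and ≥1 read per output were kept.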

Variant	polymerase ribozyme fitness (log ratio)
C40U	-0.543
C40G	-0.921
G42A C64G C114G G117C	-7.17
C40G G60U C104A	-1.87
G42C C49U	-2.21
G42A G48A G69A	-6.28
A41G G42U A75G A90U G128C U129A	-4.64
C40U A41C C56A C73U C114A	-3.67
C40U C70A	-1.93
C40U G60U G110A	-1.76
A41U G69U G120C	0.831
C40G U59A C86U A100U	-4.58
G42U G58C G63A C82G U87C	-5.43
G42A G45U C101A	-4.7
C40G G71A	-1.91
G42U A121C	0.464
C40G G44C A74U U78G	-2.88
C40U U116G	-2.61
C40U A50U	-4.47
C40U A50G	-0.548
A41C U106G C114U U130A	-4.41
C40U C70U A84G	-2.34
A41G G45U C56G	-0.725
C40G U132A	-0.821

Variant	polymerase ribozyme fitness (log ratio)
G42A C115A U130G	-2.13
G42U C53G G77U U126C	-2.18
C40G G61A C104A U106C	-1.7
C40G C86U C101A	-2.66
G42U G61A	-1.21
C40U C115A G128A	-2.68
G42U G44U C49A G69U U87G A119U G135A	-1.59
C40U A74U A111C	-1.01
G42C A46U C82G	-3.68
G42A C56G C64U G122A	-3.76
G42C U109C	-6.86
G42U C72U	-1.64
C40G G52A U78A C101A G120U	-2
A41U U87G	-0.681
A41U G45A C56A G113A	-3.04
G42C G120A U132A	-0.616
C40U G48C	-1.59
A41U G45A C88A C115A U131A	-3.64
A41U U55A	-1.08
C40U C56G	-1.16
G42U A43G G45U U55G C72A	-0.969
A41G G60A	-0.408
G42C U96G	-1.41
G42A C49G C72A C94U U130A U132C	-3.26

Variant	polymerase ribozyme fitness (log ratio)
A41U C104U	-0.832
C40U A91C C97U C115U	-3.9
A41U C101G	-3.73
A41G C64A	-7.34
G42U G57U C82U	-1.58
A41U G110C	-4.99
A41U G51U C62U	-5.82
A41G C53U G77A A108G	-2.63
C40G C56U A91C	-2.49
A41G U55A U130G	-0.934
A41U C53G G63C C72U G77A	-3.7
A41U A46U	-2.26
A43C A118U	-1.82
C40U C56U A74U U78C C89G	-2.81
A41U C70A C89G C97A A105C G110U	-5.8
C40U C88U	-0.588
C40A U131A	-1.11
C40U C80U C99U C124U	-2.92
C40U C49A C94U G117C	-5.09
C40G G47U A74U	-4.86
G42A C56G G122A	-3.21
G42A U96C	-2.41
A41G G61U U96A A105U U133C	-6.14
G42U A43C G69C A74U U87G C89G	-5.66

Variant	polymerase ribozyme fitness (log ratio)
A41U C56A U87C	-1.49
G42A G69A G93C	-6.98
A41C G45U C124A U126G	-1.66
G42A C56A U112A G120A	-4.77
A41U C94U A111G G128U	-4.31
G42A C94G U130G	-3.82
C40G U78C	-1.4
A41C G71U	-0.988
A41G C53A C64A A121G	-4.97
G42A C49U C56U U130G	-3.07
G42A A83C	-1.87
G42U G93A	-2.14
G42A G44C C56G G135U	-3.31
G42U C88U C101G	-3.94
C40U C88A C114G	-2.99
C40G G52A A118U	-0.83
G42U G52U U54A A111C G122A	-5.42
C40G G52U	-2.76
G42C C62U	-2.97
A41U G113C C115A C124A	-5.25
G42A G45U C85A A111U	-5.93
C40G G44U C85U	-5.09
G42U C72A A74G U96C	-3.45
A41C G113A C124G	-1.49

Variant	polymerase ribozyme fitness (log ratio)
G42C A66G C79U A121C U133G	-1.36
A41U G48C A83C C88G	-4.38
C40G A43G U54A	-4.85
C40G C94A G110C C114U A118G	-6.35
C40U G48C C82A	-1.94
G42C A66U A83U	-3.36
C40G C86U A100U	-3.33
C40U G52A	-0.72
A41C C64A A90G	-4.74
A41U G52A G117U	-4.85
A41C C70U G71C G117U C123A G128A	-6.8
A41U G42C C114A C124A	-3.31
A41G G44A C62A U131G	-3.51
A41U C53A C114G	-1.85
C40U C72U C98G G127U U131C	-6.34
C40U A43U G57U G63C	-3.07
G42C G48A G63U U78C A83C G113U	-7.11
G42U A43G C123A	-1.31
A41G C104U	0.737
C40G U55G	-0.761
C40G G44U G63C C85U	-5.9
C40G G113A G122C	-1.81
C40G C102A	-3.26
C40U G42A C56A C76G G93U C114G	-4.34

Variant	polymerase ribozyme fitness (log ratio)
G42U U78C	-1.45
C40U G93A	-1.09
G42A C70A C102U C114G U125A	-6.46
G42A C85A C94G G113A	-4.07
G42A A111U	-5.4
G42U A50C	-1.99
C40G C56U G128C	-3.4
C40G G45U U106A U112A	-0.392
A41U G57A	-1.97
G42A U87G	-1.65
C40U G51U	-3.7
C40U A41U G60A	-2.3
A41U G47A G110U	-5.48
G42A G47A U112A	-1.49
C40G U81C	-1.19
C40G C94A	-2.65
G42A U54C U132A	-1.62
G42U A43C C73U G93A	-2.39
G42C U54G	-1.44
A41U A50G G77A	-0.647
G42U U112A	-0.57
G42U C73U	-1.51
G42U C73A	-1.55
A41U A46U G63U C115A G120U C123G	-3.28

Variant	polymerase ribozyme fitness (log ratio)
C40U G51A G71C	-4.85
A41C G107C G117A	-6.25
G42C G47U	-4.02
C40U G47U C53U	-3.37
G42U G93U A118G	-2.35
C40U C53U	-0.572
A41U C76A	-1.89
A41G G69U G93C	-0.214
C40G C115A G120C G122U	-1.41
G42C G44U G117U A118U	-5.32
C40U C56U A90U	-2.08
G42A U87C C89G A90G C115U	-5.47
G42U G122A	-1.66
C40U U59A U116A	-4.02
C40G G69U U92A G93A C94G A119G	-0.914
C40U C82G	-1.54
G42C C124G	0.37
A41C G117C	-4.47
A41C C80A G107A G117U U129C	-7.66
G42C C56U C124A	0.861
A43C A46G	-1.62
A41C C53G C85A A111U U112A U116C	-6.24
G42U U78A C85U	-2.63
